{
  "source": "paper PMC6754399",
  "biological_target": "Wild-type CFTR (cystic fibrosis transmembrane conductance regulator) N-terminally labelled with GFP or RFP (UniProt P13569)",
  "experiment": "FRET or BRET; acceptor-photobleaching FRET between GFP-CFTR (donor) and RFP-CFTR (acceptor) in fixed HEK293T cells, measured intracellularly, basal conditions (air exposure)",
  "data": [
    {"substance": "Wild-type CFTR (cystic fibrosis transmembrane conductance regulator) N-terminally labelled with GFP or RFP (from UniProt P13569 1-1480) (natural protein)", "values": [
      {"measurement": "FRET efficiency (%E)", "result": 0, "unit": "%"}
    ]}
  ]
}
